# Measurements taken from paper PMC10659539.
# Several values for one entry are separate records, joined by “and”; a condition that tells them apart may be missing. Equal entries are not always repeated.
# Legend:
# [1] = biological target: GLT-1, transfected in HEK PS DKO cells (UniProt P31596); experiment: native gel or EMSA; Blue Native PAGE of HEK PS DKO cells transfected with GLT-1 and pcDNA3.1-GFP or wildtype PS1, lysed with digitonin 5%; blot with anti-GLT-1
# [2] = biological target: GLT-1, transfected in HEK PS DKO cells (UniProt P31596); experiment: cross-linking; living HEK PS DKO cells transfected with GLT-1 and empty vector or wildtype PS1; 50 μM DSS in PBS−/− for 30 min at room temperature, quenched with 20 mM glycine; lysed in 1% NP-40 + 0.1% Triton-X; SDS-PAGE and blot with anti-GLT-1
substance,measurement,setting,value
"GLT-1, transfected in HEK PS DKO cells (from UniProt P31596 1-573) (natural protein)","GLT-1 multimers as percent of total GLT-1, with co-expressed PS1",[1],95.6%
same,"GLT-1 multimers as percent of total GLT-1, without PS1",[1],89.7%
same,stoichiometry N,[1],2 and 3
same,stoichiometry N,[2],2 and 3
